B1: Actin nucleation-promoting factor WAS (Homo sapiens), P42768 (parent)
chain: MSGGPMGGRPGGRGAPAVQQNIPSTLLQDHENQRLFEMLGRKCLTLATAVVQLYLALPPGAEHWTKEHCGAVCFVKDNPQKSYFIRLYGLQAGRLLWEQELYSQLVYSTPTPFFHTFAGDDCQAGLNFADEDEAQAFRALVQEKIQKRNQRQSGDRRQLPPPPTPANEERRGGLPPLPLHPGGDQGGPPVGPLSLGLATVDIQNPDITSSRYRGLPAPGPSPADKKRSGKKKISKADIGAPSGFKHVSHVGWDPQNGFDVNNLDPDLRSLFSRAGISEAQLTDAETSKLIYDFIEDQGGLEAVRQEMRRQEPLPPPPPPSRGGNQLPRPPIVGGNKGRSGPLPPVPLGIAPPPPTPRGPPPPGRGGPPPPPPPATGRSGPLPPPPPGAGGPPMPPPPPPPPPPPSSGNGPAPPPLPPALVPAGGLAPGGGRGALLDQIRQGIQLNKTPGAPESSALQPPPQSSEGLVGALMHVMQKRSRAIHSSDEGEDQAGDEDEDDEWDD

Key:
[1] = variants of: B1; settings: with wipf1_human WIPF1, O43516
[2] = variants of: B1; settings: with wipf1_human WIPF1, O43516; remark: listed apart in the source

Chain of wipf1_human WIPF1, O43516 (O43516 whole entry): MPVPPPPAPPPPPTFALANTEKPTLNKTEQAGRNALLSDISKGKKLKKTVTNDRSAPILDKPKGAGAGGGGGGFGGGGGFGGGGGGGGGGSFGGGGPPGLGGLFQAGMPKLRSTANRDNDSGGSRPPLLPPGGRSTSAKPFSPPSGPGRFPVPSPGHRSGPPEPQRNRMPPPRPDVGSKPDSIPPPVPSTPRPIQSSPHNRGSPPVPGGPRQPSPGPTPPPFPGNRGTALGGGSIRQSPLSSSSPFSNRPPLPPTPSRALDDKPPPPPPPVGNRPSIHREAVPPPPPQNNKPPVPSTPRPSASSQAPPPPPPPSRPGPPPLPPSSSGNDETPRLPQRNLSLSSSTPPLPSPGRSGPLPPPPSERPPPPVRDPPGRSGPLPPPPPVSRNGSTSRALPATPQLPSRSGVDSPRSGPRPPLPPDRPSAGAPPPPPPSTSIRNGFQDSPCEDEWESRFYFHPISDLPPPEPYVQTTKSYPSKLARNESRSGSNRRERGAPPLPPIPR

A134T was tested, and the “effect of a mutation on the interaction” value [1] was “disrupting interaction strength”.

With R138E the “effect of a mutation on the interaction” value [1] was “with no effect” and the “effect of a mutation on the interaction” value [2] was “increasing interaction strength”.

With R138A the “effect of a mutation on the interaction” value [1] was “with no effect” and the “effect of a mutation on the interaction” value [2] was “increasing interaction strength”.

In the case of R138P, the “effect of a mutation on the interaction” value [1] is reported as “disrupting interaction strength” and the “effect of a mutation on the interaction” value [2] is reported as “decreasing interaction strength”.
